Reference: article PMC4603797, “The Structural Differences between a Glycoprotein Specific F-Box Protein Fbs1 and Its Homologous Protein FBG3” (PLoS ONE, 2015)

Tests used:
[1] = target: ribonuclease B (UniProt P61823); assay: pull-down; conditions: read off a plot; for percent of parent: parent: est. 100; for other: Relative RNase B binding (% of Skp1–Fbs1 wild type control): parent: n.d.
[2] = target: ribonuclease B (UniProt P61823); assay: pull-down; conditions: parent: est. 100; read off a plot
[3] = target: T1, Fbs1 SBD A217C (murine, UniProt Q80UW2 117-297, A217C); assay: pull-down; His-tagged Fbs1 SBDs (15 μg) immobilised on Ni-NTA agarose, incubated with 10.7 μg RNase B at 4°C for 1 h; 20 mM Tris-HCl pH 7.5, 20 mM imidazole, 500 mM NaCl; SDS-PAGE, CBB staining, densitometry; conditions: both partners purified
T1 construct: Fbs1/FBXO2, murine, SBD residues 117-297; Made with the KOD-Plus Mutagenesis kit; source: E. coli (pET15b), purified (Ni-NTA, gel filtration)
T1 sequence (looked up): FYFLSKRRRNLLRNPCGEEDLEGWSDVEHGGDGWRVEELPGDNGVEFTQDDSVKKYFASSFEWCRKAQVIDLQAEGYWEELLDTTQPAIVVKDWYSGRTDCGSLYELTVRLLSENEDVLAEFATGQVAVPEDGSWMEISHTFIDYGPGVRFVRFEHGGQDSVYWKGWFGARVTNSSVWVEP

[4] = target: T2, SBD of Fbs1 (117–297), wild type (murine, UniProt Q80UW2 117-297); assay: as above; conditions: both partners purified
T2 construct: In pET15b; also called Fbs1 SBD; Fbs1 wild type; source: E. coli Rosetta (DE3), purified (Ni-NTA, gel filtration)
T2 sequence (looked up): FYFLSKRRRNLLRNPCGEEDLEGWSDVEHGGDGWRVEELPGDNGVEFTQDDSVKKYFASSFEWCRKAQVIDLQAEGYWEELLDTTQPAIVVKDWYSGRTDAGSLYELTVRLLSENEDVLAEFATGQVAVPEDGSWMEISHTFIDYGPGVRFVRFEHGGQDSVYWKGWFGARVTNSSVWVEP

[5] = target: T3, Fbs1 SBD L220K (murine, UniProt Q80UW2 117-297, L220K); assay: as above; conditions: both partners purified
T3 construct: Fbs1/FBXO2, murine, SBD residues 117-297; Made with the KOD-Plus Mutagenesis kit; source: E. coli (pET15b), purified (Ni-NTA, gel filtration)
T3 sequence (looked up): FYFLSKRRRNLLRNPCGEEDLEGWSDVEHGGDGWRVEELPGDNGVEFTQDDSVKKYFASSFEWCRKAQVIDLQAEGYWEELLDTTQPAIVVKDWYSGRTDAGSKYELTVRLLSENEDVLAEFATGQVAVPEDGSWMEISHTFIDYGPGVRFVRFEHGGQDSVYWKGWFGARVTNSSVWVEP

[6] = target: T4, Fbs1 SBD T215P (murine, UniProt Q80UW2 117-297, T215P); assay: as above; conditions: both partners purified
T4 construct: Fbs1/FBXO2, murine, SBD residues 117-297; Made with the KOD-Plus Mutagenesis kit; source: E. coli (pET15b), purified (Ni-NTA, gel filtration)
T4 sequence (looked up): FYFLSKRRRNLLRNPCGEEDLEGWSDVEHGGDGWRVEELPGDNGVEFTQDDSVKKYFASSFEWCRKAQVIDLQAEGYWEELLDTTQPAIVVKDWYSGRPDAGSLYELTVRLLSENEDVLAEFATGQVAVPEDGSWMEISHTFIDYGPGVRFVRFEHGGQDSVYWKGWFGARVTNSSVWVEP

Question: How did the percent of parent [1] turn out when “SBD of Fbs1 (117–297), wild type (from UniProt Q80UW2) loop β2-3 of Fbs1 replaced by that of FBG3” was run?
Answer: Its percent of parent is 62%.

Question: Which results are given for “SBD of Fbs1 (117–297), wild type (from UniProt Q80UW2) loop β5-6 of Fbs1 replaced by that of FBG3”?
Answer: percent of parent [2]: 25%; percent of parent [1]: 28%

Question: “SBD of Fbs1 (117–297), wild type (from UniProt Q80UW2) loop β7-8 of Fbs1 replaced by that of FBG3” was tested. Which percent of parent [1] did it give?
Answer: The percent of parent was 96%.

Question: For “SBD of Fbs1 (117–297), wild type (from UniProt Q80UW2) loop β9-10 of Fbs1 replaced by that of FBG3”, which percent of parent [1] is on record?
Answer: Its percent of parent is 110%.

Question: How did the percent of parent [1] turn out when “SBD of Fbs1 (117–297), wild type (from UniProt Q80UW2) loops β2-3/β5-6 of Fbs1 replaced by those of FBG3” was run?
Answer: Its percent of parent is 12%.

Question: How did the percent of parent [1] turn out when “SBD of Fbs1 (117–297), wild type (from UniProt Q80UW2) loops β2-3/β5-6/β7-8/β9-10 of Fbs1 replaced by those of FBG3” was run?
Answer: The percent of parent was 2.5%.

Question: How did the other: Relative RNase B binding (% of Skp1–Fbs1 wild type control) [1] turn out when “Skp1–FBG3 complex, wild type (His-tagged Skp1) (from UniProt P63208;Q9H4M3) loops β2-3/β5-6/β7-8 of FBG3 replaced by those of Fbs1” was run?
Answer: Its other: Relative RNase B binding (% of Skp1–Fbs1 wild type control) is 84%.

Question: For “Skp1–FBG3 complex, wild type (His-tagged Skp1) (from UniProt P63208;Q9H4M3) loops β2-3/β5-6/β7-8/β9-10 of FBG3 replaced by those of Fbs1”, which other: Relative RNase B binding (% of Skp1–Fbs1 wild type control) [1] is on record?
Answer: The other: Relative RNase B binding (% of Skp1–Fbs1 wild type control) was 78%.

B1: ribonuclease B (enzyme, bovine, UniProt P61823 27-150, looked up)
chain: KETAAAKFERQHMDSSTSAASSSNYCNQMMKSRNLTKDRCKPVNTFVHESLADVQAVCSQKNVACKNGQTNCYQSYSTMSITDCRETGSSKYPNCAYKTTQANKHIIVACEGNPYVPVHFDASV
modifications: a single high-mannose oligosaccharide
notes: ribonuclease B (glycosylated pancreatic ribonuclease), bovine pancreas; The Fbs proteins recognise the N-glycan of this glycoprotein; also called RNase B; source: bought: Sigma Aldrich (from bovine pancreas)
Question: Does B1 bind [3]?
Answer: Result: binds

Question: Does B1 bind [4]?
Answer: Result: binds

Question: Does B1 bind [5]?
Answer: Result: binds

Question: Does B1 bind [6]?
Answer: Result: binds
